Positions count from the first letter of the chain named.
B1: FS20-11-134AA/4420 (bispecific antibody, human IgG1, kappa, L234A L235A)
heavy: EVKLDETGGGLVQPGRPMKLSCVASGFTFSDYWMNWVRQSPEKGLEWVAQIRNKPYNYETYYSDSVKGRFTISRDDSKSSVYLQMNNLRVEDMGIYYCTGSYYGMDYWGQGTSVTVSSASTKGPSVFPLAPSSKSTSGGTAALGCLVKDYFPEPVTVSWNSGALTSGVHTFPAVLQSSGLYSLSSVVTVPSSSLGTQTYICNVNHKPSNTKVDKKVEPKSCDKTHTCPPCPAPEAAGGPSVFLFPPKPKDTLMISRTPEVTCVVVDVSHEDPEVKFNWYVDGVEVHNAKTKPREEQYNSTYRVVSVLTVLHQDWLNGKEYKCKVSNKALPAPIEKTISKAKGQPREPQVYTLPPSREEDDNDVSLTCLVKGFYPSDIAVEWESNGIPIGPYKTTPPVLDSDGSFFLYSKLTVDKSRWWKHYVEEHPFLCSVMHEALHNHYTQKSLSLSPG
light: DVVMTQTPLSLPVSLGDQASISCRSSQSLVHSNGNTYLRWYLQKPGQSPKVLIYKVSNRFSGVPDRFSGSGSGTDFTLKISRVEAEDLGVYFCSQSTHVPWTFGGGTKLEIKRTVAAPSVFIFPPSDEQLKSGTASVVCLLNNFYPREAKVQWKVDNALQSGNSQESVTEQDSKDSTYSLSSTLTLSKADYEKHKVYACEVTHQGLSSPVTKSFNRGEC
notes: Human IgG1 with anti-FITC 4420 Fab and LALA; The OX40 site is in the CH3 domain; also called FS20-11-134 Fcab in mock (4420 LALA) mAb^2 format
B2: FS20-31-102AA/4420 (bispecific antibody, human IgG1, kappa, L234A L235A)
heavy: EVKLDETGGGLVQPGRPMKLSCVASGFTFSDYWMNWVRQSPEKGLEWVAQIRNKPYNYETYYSDSVKGRFTISRDDSKSSVYLQMNNLRVEDMGIYYCTGSYYGMDYWGQGTSVTVSSASTKGPSVFPLAPSSKSTSGGTAALGCLVKDYFPEPVTVSWNSGALTSGVHTFPAVLQSSGLYSLSSVVTVPSSSLGTQTYICNVNHKPSNTKVDKKVEPKSCDKTHTCPPCPAPEAAGGPSVFLFPPKPKDTLMISRTPEVTCVVVDVSHEDPEVKFNWYVDGVEVHNAKTKPREEQYNSTYRVVSVLTVLHQDWLNGKEYKCKVSNKALPAPIEKTISKAKGQPREPQVYTLPPSRDEWASGEVSLTCLVKGFYPSDIAVEWESNGQPEVDYKTTPPVLDSDGSFFLYSKLTVPYWRWGVPRTFSCSVMHEALHNHYTQKSLSLSPG
light: B1 light
notes: Human IgG1 with anti-FITC 4420 Fab and LALA; The OX40 site is in the CH3 domain; also called FS20-31-102 Fcab in mock (4420 LALA) mAb^2 format
B3: FS20-22-41AA/4420 (bispecific antibody, human IgG1, kappa, L234A L235A)
heavy: EVKLDETGGGLVQPGRPMKLSCVASGFTFSDYWMNWVRQSPEKGLEWVAQIRNKPYNYETYYSDSVKGRFTISRDDSKSSVYLQMNNLRVEDMGIYYCTGSYYGMDYWGQGTSVTVSSASTKGPSVFPLAPSSKSTSGGTAALGCLVKDYFPEPVTVSWNSGALTSGVHTFPAVLQSSGLYSLSSVVTVPSSSLGTQTYICNVNHKPSNTKVDKKVEPKSCDKTHTCPPCPAPEAAGGPSVFLFPPKPKDTLMISRTPEVTCVVVDVSHEDPEVKFNWYVDGVEVHNAKTKPREEQYNSTYRVVSVLTVLHQDWLNGKEYKCKVSNKALPAPIEKTISKAKGQPREPQVYTLPPSRDEYWDQEVSLTCLVKGFYPSDIAVEWESNGDEQFAYKTTPPVLDSDGSFFLYSKLTVDQYRWNPGDYFSCSVMHEALHNHYTQKSLSLSPG
light: B1 light
notes: Human IgG1 with anti-FITC 4420 Fab and LALA; The OX40 site is in the CH3 domain; also called FS20-22-41 Fcab in mock (4420 LALA) mAb^2 format
B4: FS20-31-108AA/4420 (bispecific antibody, human IgG1, kappa, L234A L235A)
heavy: B2 heavy with Q387E, P388K, V390I, V420A, P421K
light: B1 light
notes: Human IgG1 with anti-FITC 4420 Fab and LALA; The OX40 site is in the CH3 domain; also called FS20-31-108 Fcab in mock (4420 LALA) mAb^2 format
B5: FS20-11-131AA/4420 (bispecific antibody, human IgG1, kappa, L234A L235A)
heavy: B1 heavy with S415N, E423D
light: B1 light
notes: Human IgG1 with anti-FITC 4420 Fab and LALA; The OX40 site is in the CH3 domain; also called FS20-11-131 Fcab in mock (4420 LALA) mAb^2 format
B6: FS20-31-94AA/4420 (bispecific antibody, human IgG1, kappa, L234A L235A)
heavy: B2 heavy with A360E, S361H, Q387I, P388R, V390H, V420G, R422G
light: B1 light
notes: Human IgG1 with anti-FITC 4420 Fab and LALA; also called FS20-31-94 Fcab in mock (4420 LALA) mAb^2 format
B7: FS20-22-49AA/4420 (bispecific antibody, human IgG1, kappa, L234A L235A)
heavy: B3 heavy with G421A
light: B1 light
notes: Human IgG1 with anti-FITC 4420 Fab and LALA; The OX40 site is in the CH3 domain; also called FS20-22-49 Fcab in mock (4420 LALA) mAb^2 format; FS20-22-49/4420 (LALA)
B8: FS20-22-47AA/4420 (bispecific antibody, human IgG1, kappa, L234A L235A)
heavy: B3 heavy with N419S
light: B1 light
notes: Human IgG1 with anti-FITC 4420 Fab and LALA; The OX40 site is in the CH3 domain; also called FS20-22-47 Fcab in mock (4420 LALA) mAb^2 format
B9: FS20-31-115AA/4420 (bispecific antibody, human IgG1, kappa, L234A L235A)
heavy: B2 heavy with Q387E, P388Q, V390F, V420A, P421K
light: B1 light
notes: Human IgG1 with anti-FITC 4420 Fab and LALA; The OX40 site is in the CH3 domain; also called FS20-31-115 Fcab in mock (4420 LALA) mAb^2 format
B10: FS20-11-127AA/4420 (bispecific antibody, human IgG1, kappa, L234A L235A)
heavy: B1 heavy with K419R
light: B1 light
notes: Human IgG1 with anti-FITC 4420 Fab and LALA; The OX40 site is in the CH3 domain
B11: FS20-22-85AA/4420 (bispecific antibody, human IgG1, kappa, L234A L235A)
heavy: B3 heavy with V413L, G421F, Y423D
light: B1 light
notes: Human IgG1 with anti-FITC 4420 Fab and LALA; The OX40 site is in the CH3 domain; also called FS20-22-85 Fcab in mock (4420 LALA) mAb^2 format
B12: FS20-22-38AA/4420 (bispecific antibody, human IgG1, kappa, L234A L235A)
heavy: B3 heavy with D387A, Q389K, F390Y, A391Q
light: B1 light
notes: Human IgG1 with anti-FITC 4420 Fab and LALA; The OX40 site is in the CH3 domain; also called FS20-22-38 Fcab in mock (4420 LALA) mAb^2 format
B13: Fcab FS20-22 (designed binder)
chain: TCPPCPAPELLGGPSVFLFPPKPKDTLMISRTPEVTCVVVDVSHEDPEVKFNWYVDGVEVHNAKTKPREEQYNSTYRVVSVLTVLHQDWLNGKEYKCKVSNKALPAPIEKTISKAKGQPREPQVYTLPPSRDEYWDQEVSLTCLVKGFYPSDIAVEWESNGQPENNYKTTPPVLDSDGSFFLYSKLTVDQYRWNPGGYFSCSVMHEALHNHYTQKSLSLSPG
notes: Soluble Fcab
B14: Fcab FS20-31 (designed binder)
chain: TCPPCPAPELLGGPSVFLFPPKPKDTLMISRTPEVTCVVVDVSHEDPEVKFNWYVDGVEVHNAKTKPREEQYNSTYRVVSVLTVLHQDWLNGKEYKCKVSNKALPAPIEKTISKAKGQPREPQVYTLPPSRDEYYSGEVSLTCLVKGFYPSDIAVEWESNGQPENDYKTTPPVLDSDGSFFLYSKLTVPYWRWGGPGTFSCSVMHEALHNHYTQKSLSLSPG
notes: Soluble Fcab

What was measured:
[1] = target: T1, human TNFRI (human, UniProt P19438 30-211, limits assumed); test: SPR (Biacore T200), receptor on CM5 chip
T1 construct: Amine-coupled to a CM5 chip
T1 sequence (looked up): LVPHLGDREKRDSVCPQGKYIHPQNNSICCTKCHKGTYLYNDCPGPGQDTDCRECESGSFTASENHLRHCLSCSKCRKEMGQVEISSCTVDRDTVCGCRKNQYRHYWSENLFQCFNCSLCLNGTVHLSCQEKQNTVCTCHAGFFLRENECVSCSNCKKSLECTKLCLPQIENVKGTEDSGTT

[2] = target: T2, human TNFRII (human, UniProt P20333 23-257, limits assumed); test: SPR (Biacore T200), receptor on CM5 chip
T2 construct: Amine-coupled to a CM5 chip
T2 sequence (looked up): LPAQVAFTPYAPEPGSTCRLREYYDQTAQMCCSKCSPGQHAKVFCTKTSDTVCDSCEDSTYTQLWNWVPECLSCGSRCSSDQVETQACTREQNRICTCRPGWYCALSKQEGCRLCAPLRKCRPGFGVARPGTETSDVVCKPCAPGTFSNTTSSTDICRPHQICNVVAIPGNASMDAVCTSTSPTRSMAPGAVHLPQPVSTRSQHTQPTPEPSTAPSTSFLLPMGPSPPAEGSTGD

[3] = target: T3, human NGFR (human, UniProt P08138 29-250, limits assumed); test: SPR (Biacore T200), receptor on CM5 chip
T3 construct: Amine-coupled to a CM5 chip
T3 sequence (looked up): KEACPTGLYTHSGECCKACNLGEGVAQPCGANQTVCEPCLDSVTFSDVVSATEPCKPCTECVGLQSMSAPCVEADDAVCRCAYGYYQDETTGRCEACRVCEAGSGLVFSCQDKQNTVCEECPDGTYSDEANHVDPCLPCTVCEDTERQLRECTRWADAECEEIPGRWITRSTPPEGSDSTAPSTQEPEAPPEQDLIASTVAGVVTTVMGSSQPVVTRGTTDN

[4] = target: T4, human CD137 (human, UniProt Q07011 24-186, limits assumed); test: SPR (Biacore T200), receptor on CM5 chip
T4 construct: Amine-coupled to a CM5 chip; also called 4-1BB

[5] = target: T5, human CD40 (human, UniProt P25942 21-193, limits assumed); test: SPR (Biacore T200), receptor on CM5 chip
T5 construct: Amine-coupled to a CM5 chip

[6] = target: T6, human OX40 receptor, cell-expressed (DO11.10-hOX40) (human, UniProt P43489 29-277); test: cell binding, DO11.10-hOX40 cells, soluble Fcab
T6 construct: also called CD134; TNFRSF4
T6 sequence: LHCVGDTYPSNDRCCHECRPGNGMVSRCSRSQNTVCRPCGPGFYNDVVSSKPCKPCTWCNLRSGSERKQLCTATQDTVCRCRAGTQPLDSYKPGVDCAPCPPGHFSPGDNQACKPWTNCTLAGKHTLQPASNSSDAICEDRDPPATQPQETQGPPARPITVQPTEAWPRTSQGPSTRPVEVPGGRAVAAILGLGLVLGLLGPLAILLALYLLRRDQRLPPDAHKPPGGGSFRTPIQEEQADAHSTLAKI

T5 sequence (P25942 21-193 limits assumed): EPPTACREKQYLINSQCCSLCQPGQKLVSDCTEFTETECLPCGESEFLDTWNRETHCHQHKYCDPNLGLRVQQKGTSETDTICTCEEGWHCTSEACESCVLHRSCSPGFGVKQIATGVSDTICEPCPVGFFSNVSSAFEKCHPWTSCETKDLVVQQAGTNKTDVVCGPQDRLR

Row | Binder | binding result [1] | binding result [2] | binding result [3] | binding result [4] | binding result [5] | binding result [6]
1 | B1 | no binding (tested: 1 µM) | no binding (tested: 1 µM) | no binding (tested: 1 µM) | no binding (tested: 1 µM) | no binding (tested: 1 µM) | 
2 | B2 | no binding (tested: 1 µM) | no binding (tested: 1 µM) | no binding (tested: 1 µM) | no binding (tested: 1 µM) | no binding (tested: 1 µM) | 
3 | B3 | no binding (tested: 1 µM) | no binding (tested: 1 µM) | no binding (tested: 1 µM) | no binding (tested: 1 µM) | no binding (tested: 1 µM) | 
4 | B4 | no binding (tested: 1 µM) | no binding (tested: 1 µM) | no binding (tested: 1 µM) | no binding (tested: 1 µM) | no binding (tested: 1 µM) | 
5 | B5 | no binding (tested: 1 µM) | no binding (tested: 1 µM) | no binding (tested: 1 µM) | no binding (tested: 1 µM) | no binding (tested: 1 µM) | 
6 | B6 | no binding (tested: 1 µM) | no binding (tested: 1 µM) | no binding (tested: 1 µM) | no binding (tested: 1 µM) | no binding (tested: 1 µM) | 
7 | B7 | no binding (tested: 1 µM) | no binding (tested: 1 µM) | no binding (tested: 1 µM) | no binding (tested: 1 µM) | no binding (tested: 1 µM) | 
8 | B8 | no binding (tested: 1 µM) | no binding (tested: 1 µM) | no binding (tested: 1 µM) | no binding (tested: 1 µM) | no binding (tested: 1 µM) | 
9 | B9 | no binding (tested: 1 µM) | no binding (tested: 1 µM) | no binding (tested: 1 µM) | no binding (tested: 1 µM) | no binding (tested: 1 µM) | 
10 | B10 | no binding (tested: 1 µM) | no binding (tested: 1 µM) | no binding (tested: 1 µM) | no binding (tested: 1 µM) | no binding (tested: 1 µM) | 
11 | B11 | no binding (tested: 1 µM) | no binding (tested: 1 µM) | no binding (tested: 1 µM) | no binding (tested: 1 µM) | no binding (tested: 1 µM) | 
12 | B12 | no binding (tested: 1 µM) | no binding (tested: 1 µM) | no binding (tested: 1 µM) | no binding (tested: 1 µM) | no binding (tested: 1 µM) | 
13 | B13 |  |  |  |  |  | binds
14 | B14 |  |  |  |  |  | binds
